Assay results taken from publication PMC7939549, “LAP2alpha maintains a mobile and low assembly state of A-type lamins in the nuclear interior” (eLife, 2021).

Biological target: T1, lamin A/C (endogenous, mEos3.2-lamin A/C WT mouse dermal fibroblasts) (mouse (endogenous in mouse dermal …, UniProt P48678 1-647))
T1 construct: lamins A and C, both products of the mouse Lmna gene, precipitated together by lamin A/C antibodies; WT clone #21 expresses mEos3.2-tagged lamin A/C (mEos3.2 in frame before the first codon, N-terminal) from 1 allele and untagged lamin A/C from 3 alleles; the precipitated pool holds tagged and untagged lamins A and C; also called lamins A and C; A-type lamins; source: endogenous, mEos3.2-Lmna WT …
T1 sequence (looked up): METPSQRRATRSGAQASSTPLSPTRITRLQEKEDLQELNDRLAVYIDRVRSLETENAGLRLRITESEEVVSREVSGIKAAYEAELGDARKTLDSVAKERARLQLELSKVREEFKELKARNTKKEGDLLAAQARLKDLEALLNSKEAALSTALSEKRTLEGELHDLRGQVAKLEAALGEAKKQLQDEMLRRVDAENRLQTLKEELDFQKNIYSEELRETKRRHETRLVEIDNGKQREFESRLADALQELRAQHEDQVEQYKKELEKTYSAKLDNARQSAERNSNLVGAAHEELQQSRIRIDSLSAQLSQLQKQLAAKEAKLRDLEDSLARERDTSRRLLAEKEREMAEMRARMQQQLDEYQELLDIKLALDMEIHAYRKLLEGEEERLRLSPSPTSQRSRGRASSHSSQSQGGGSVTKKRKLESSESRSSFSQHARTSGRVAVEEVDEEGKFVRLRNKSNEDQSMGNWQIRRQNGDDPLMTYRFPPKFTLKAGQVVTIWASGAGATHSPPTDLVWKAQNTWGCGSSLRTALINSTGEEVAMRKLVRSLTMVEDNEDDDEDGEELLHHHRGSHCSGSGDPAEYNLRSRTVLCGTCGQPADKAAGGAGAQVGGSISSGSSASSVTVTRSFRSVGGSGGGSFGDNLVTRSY
Experiment: not stated; our unpublished data; ratio of mEos3.2-lamin A and LAP2α in the complex

B1: LAP2α (endogenous, mouse dermal fibroblasts) (natural protein, UniProt Q61033 1-693, looked up)
chain: MPEFLEDPSVLTKDKLKSELVANNVTLPAGEQRKDVYVQLYLQHLTARNRPPLAAGANSKGPPDFSSDEEREPTPVLGSGASVGRGRGAVGRKATKKTDKPRLEDKDDLDVTELSNEELLDQLVRYGVNPGPIVGTTRKLYEKKLLKLREQGTESRSSTPLPTVSSSAENTRQNGSNDSDRYSDNDEGKKKEHKKVKSARDCVPFSELASTPSGAFFQGISFPEISTRPPLGRTELQAAKKVQTTKRDPPRETCTDTALPGKGQTHKLAPGRSLFIPSESSYDRCVEKSSSPSSQREFAARLVSAAASPSLIRETTTTYSKDIVENICRGGKSRAQPLRAEEPGVSDQSVFSSEREVLQESERSQVISPPLAQAIRDYVNSLLVQGGVGSLPGTSDSVPTLDVENICKRLSQSSYQDSESLSPPRKVPRLSEKPARGGDSGSCVAFQNTPGSEHRSSFAKSVVSHSLTTLGVEVSKPPPQHDKIEASEPSFPLHESILKVVEEEWQQIDRQLPSVACRYPVSSIEAARILSVPKVDDEILGFISEATPRAATQASSTESCDKHLDLALCRSYEAAASALQIAAHTAFVAKSLQADISQAAQIINSDPSDAQQALRILNRTYDAASYLCDAAFDEVRMSACAMGSSTMGRRYLWLKDCKISPASKNKLTVAPFKGGTLFGGEVHKVIKKRGNKQ
notes: lamin-associated polypeptide 2 alpha (LAP2α), mouse, endogenous, detected with antibody 1H11; also called lamin-associated polypeptide 2 alpha; source: endogenous, mEos3.2-Lmna WT mouse dermal fibroblasts, soluble cell extract
  stoichiometry N: 1
